Experiment [1] has as its target T1, GFP-His6 (eGFP) (Aequorea victoria, UniProt P42212 2-238 = GFP).
T1 construct: SPR and bead assays speak only of recombinant GFP or eGFP; also called recombinant GFP; A. victoria (Av) GFP
The experiment in a line: bead binding assay (footnote 1).

In experiment [2] the target is T1, GFP-His6 (eGFP). Description: label under gel lane; legend: in vitro Kd for GFP by SPR. Background: In SPR one partner is held on a chip, and binding of the other changes the refractive index at the surface.
The target of experiment [3] is T1, GFP-His6 (eGFP). Description: SPR, GFP immobilized.
The target in experiment [4] is T1, GFP-His6 (eGFP). The experiment in a line: SPR, GFP immobilized, Langmuir fit; no unit printed [continued].
The target in experiment [5] is T2, DsRed (Discosoma sp., UniProt Q9U6Y8 1-225).
T2 construct: Recombinant fluorescent protein; construct not described; also called standard DsRed; DsRed from Discosoma (Ds)
The experiment in a line: bead binding: nanobody-Dynabeads + fluorescent protein, eluate on SDS-PAGE.

The target in experiment [6] is T1, GFP-His6 (eGFP). The experiment in a line: SPR, GFP immobilized, Langmuir fit; unit inferred.
Experiment [7] has as its target T1, GFP-His6 (eGFP). The experiment in a line: SPR, GFP immobilized, Langmuir fit; no unit printed [continued]. This is another data set of the same source.
For experiment [8], the target named is T3, mCherry (Discosoma).
T3 construct: Immunogen is mCherry-His6; SPR says recombinant mCherry; also called recombinant mCherry-His6; Discosoma mCherry
The experiment in a line: SPR, mCherry immobilized, Langmuir fit; unit inferred.

Experiment [9] has as its target T3, mCherry. The experiment in a line: label under gel lane; legend: in vitro Kd for mCherry by SPR.
In experiment [10] the target is T1, GFP-His6 (eGFP). The experiment in a line: bead binding: nanobody-Dynabeads + fluorescent protein, eluate on SDS-PAGE.
Experiment [11] has as its target T2, DsRed. The experiment is described as above. This is another data set of the same source.
In experiment [12] the target is T3, mCherry. Description: SPR, mCherry immobilized.

Read-outs that look alike come from different tables or passages of the source.

T2 sequence (Q9U6Y8 whole entry): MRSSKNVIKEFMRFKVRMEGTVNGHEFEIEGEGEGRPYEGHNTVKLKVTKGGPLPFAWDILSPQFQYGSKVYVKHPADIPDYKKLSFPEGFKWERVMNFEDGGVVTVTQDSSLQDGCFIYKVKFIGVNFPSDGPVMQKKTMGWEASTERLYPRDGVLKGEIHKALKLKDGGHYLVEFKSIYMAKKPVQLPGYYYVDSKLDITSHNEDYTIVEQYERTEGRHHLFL

B1: LaG-11 (VHH)
VHH: DVQLVESGGRSVRAGDSLRLSCLASGGTFSLYAMGWFRQAPGKEREFVAAVTWSGGSTYYTDSVKGRFSISRDNAKNTVYLQMNSLKPEDTAVYYCAVRTSGFFGSIPVTERAFDYWGQGTQVTVS
Take B1: the Kd in the experiment with GFP-His6 (eGFP) [1] and with GFP-His6 (eGFP) [2] was 22900 nM throughout.

B2: LaG-43 (VHH)
VHH: DVQLVESGGGLVQPGGSLRLSCEASGGAFSTVAMGWFRQAPGKEREFVGAITWTAGSTYYADSAKGRFTISRDNAKNTVHLQMNSLKPEDTAVYYCAQRVRGFFGPLRTTPSWYEYWGQGTQVTVS
For B2, the results for the Kd in the experiment with GFP-His6 (eGFP) [2], with GFP-His6 (eGFP) [3] and with GFP-His6 (eGFP) [4] were 13 nM, 11 nM and 11 nM, respectively.

B3: LaG-16 (VHH)
VHH: QVQLVESGGRLVQAGDSLRLSCAASGRTFSTSAMAWFRQAPGREREFVAAITWTVGNTILGDSVKGRFTISRDRAKNTVDLQMDNLEPEDTAVYYCSARSRGYVLSVLRSVDSYDYWGQGTQVTVS
modifications: Conjugated to Alexa Fluor 568 (succinimidyl ester, on amines) in the microscopy result. The letters are unchanged.
notes: Conjugated to Alexa Fluor 568 for microscopy
In the case of B3, the binding result in the experiment with DsRed [5] was “no binding”. Further, the Kd with GFP-His6 (eGFP) [6] worked out at 0.69 nM; with GFP-His6 (eGFP) [3], 0.7 nM.

B4: LaG41-LaG2 (G4S) (bispecific antibody)
single-chain fusion of two VHH: MADVQLVESGGGLVQAGGSLRLSCAASGPTGAMAWFRQAPGKEREFVGGISGSETDTYYVDSVKGRFTVDRDNVKNTVYLQMNSLKPEDTAVYYCAARRRITLFTSRTDYDFWGRGTQVTVGGGGSGGGGSGGGGSMAQVQLVESGGGLVQAGGSLRLSCAASGRTFSNYAMGWFRQAPGKEREFVAAISWTGVSTYYADSVKGRFTISRDNDKNTVYVQMNSLIPEDTAIYYCAAVRARSFSDTYSRVNEYDYWGQGTQVTV
notes: Member of the group m24; also called LaG41-LaG2 G4S Dimer
With B4, the equilibrium dissociation constant (Kd) with GFP-His6 (eGFP) [3] and in the experiment with GFP-His6 (eGFP) [4] was 0.15 nM each time.

B5: LaG-19 (VHH)
VHH: QVQLVESGGGLVQAGGSLRLSCAASGPTGAMAWFRQAPGKEREFVGGISRSGTDTYYVDSVKGRFTIDRDNAKNTVYLQMNSLKPEDTAVYYCAARRSQILFTSRTDYEFWGQGTQVTVS
Take B5: in the experiment with GFP-His6 (eGFP) [1], the Kd amounted to 24.6 nM. Besides, in the experiment with DsRed [5], the binding result was “no binding”.

B6: LaG-26 (VHH)
VHH: QVQLVESGGGLVQAGASMRLSCAASGITFSLYHWVWFRQAAGREHEFVAGIIRSGGETLSADSVKDRFIISRDDAKNTLYLQMNMLQPEDTATYYCAATHRADWYSSAFREYIFRGQGTQVTVS
For B6, in the experiment with DsRed [5], the binding result is listed as “no binding”. For the same molecule, the Kd with GFP-His6 (eGFP) [7] and in the experiment with GFP-His6 (eGFP) [3] was 2.6 nM each time.

B7: LaG-35 (VHH)
VHH: DVQLVESGGGLVQAGGSLRLSCTVSGRTFSNYAMGWFRQAPGKEREFVAGISWTGGHTLYTDSVKGRFTISRDNAKNTVYLQMNSLKPEDTALYYCAADRAADFFAQRDEYDYWGQGTQVTVS
Consider B7, for which the values for the Kd with GFP-His6 (eGFP) [1] and with GFP-His6 (eGFP) [2] were 23.5 nM and 24 nM, respectively.

B8: LaM-1 (VHH)
VHH: QVQLVESGGGLVQAGDSLRLSCAASGRTFENYAMGWFRQAPGKEREFVGAVSWGGGRTYYADNVKGRFTISRDNAKKNTVYLQMNSLKPEDTAVYYCAAKSVLTIATMRVPDEYNYWGQGTQVTVS
As for B8, the Kd in the experiment with mCherry [8], with mCherry [9] and with mCherry [12] was 22 nM in each case. Further, the binding result in the experiment with GFP-His6 (eGFP) [10] and with DsRed [11] was “no binding” throughout.

B9: LaG-30 (VHH)
VHH: QVQLVESGGGLVQAGGSLRLSCAASGRTFSTSAMGWFRQAPGREREFVAAITWTVGNTIYGDSMKGRFTISRDRTKNTVDLQMDSLKPEDTAVYYCTARSRGFVLSDLRSVDSFDYKGQGTQVTVS
For the molecule B9, the binding result with DsRed [5] is “no binding”. The Kd with GFP-His6 (eGFP) [7] and with GFP-His6 (eGFP) [3] was 0.5 nM in each case.

B10: LaM-3 (VHH)
VHH: QVQLVQSGGGLVQAGGSLRLSCAASGRTFSDIAVGWFRQTPGKEREFVAAISWSGLIINYGDSVEDRFTISRDNAKSAVYLQMNSLKPEDTAVYYCAARIGMNYYYAREIEYPYWGQGTQVTVS
On to B10, for which the Kd with mCherry [8], with mCherry [9] and with mCherry [12] was 1.9 nM each time. In the experiment with GFP-His6 (eGFP) [10], the binding result is “no binding”.

B11: LaG-6 (VHH)
VHH: QVQLVESGGGLVQAGGSLRLSCAASGRTFSTSAMAWFRQAPGKEREFAAGITWISSSTYYTDSVKGRFTISRDNAKNTVYLQMNSLKPEDTAVYYCAAKSEGYFGFPRVENEYPYWGQGTQVTV
Take B11: the Kd with GFP-His6 (eGFP) [6] and in the experiment with GFP-His6 (eGFP) [3] was 310 nM throughout.

B12: LaG-29 (VHH)
VHH: QVQLVESGGGLVQAGAALRLSCAASGGTFSFYNMGWFRQAPGKEREFVVSISRSGGGTAYADSVKGRFTISRDNAKNTAYLQMNSLKPEDTAVYYCAAGLRDWGREGEPHYWGQGTQVTVS
Turning to B12, the Kd in the experiment with GFP-His6 (eGFP) [7] and with GFP-His6 (eGFP) [3] was 110 nM throughout.

B13: LaG-37 (VHH)
VHH: QVQFVESGGGTVQDGDFLRLSCTASGDTFSNYHAGWFRQPPGREREFVAAISWTGEGTLYADSVKGQFTISRDNAKNAMYLQMNRLKPEDTAVYYCAAARSVGFTWRSSKSNDYAYWGQGTQVTV
For B13, the Kd with GFP-His6 (eGFP) [2] is 25 nM; with GFP-His6 (eGFP) [7] it was 24 nM; with GFP-His6 (eGFP) [3] it was 24 nM.

B14: LaG-10 (VHH)
VHH: QVQLVESGGGLVQAGDSLQLSCAFSGGTFSTYAMGWFRQAPGKEREFVGGISRSGATTNYEDSVKGRFTISKDNTKNTVYLQLNSLKPEDTAVYYCAARNNILPVTTIDKYEYWGQGTQVTV
For B14, the Kd with GFP-His6 (eGFP) [6] and with GFP-His6 (eGFP) [3] was 97 nM in each case.

B15: LaG-17 (VHH)
VHH: DVQLVESGGGLVQAGGSLRLSCAASGRTISMAAMSWFRQAPGKEREFVAGISRSAGSAVHADSVKGRFTISRDNTKNTLYLQMNSLKAEDTAVYYCAVRTSGFFGSIPRTGTAFDYWGQGTQVTVS
Take B15: the binding result with DsRed [5] was “no binding”. This molecule registered a Kd in the experiment with GFP-His6 (eGFP) [6] of 48 nM.

B16: LaG-27 (VHH)
VHH: DVQLVESGGGLVQAGGSLRLSCTASGLTISTYNIGWFRQAPGKEREFVGIIIRNGDTTYYADSVKGRFTISRDNAKNTVYLQMNSVKPADAAVYSCGATVRAGAAAEQYNSYIFRGQGTQVTV
For B16, the binding result with DsRed [5] is “no binding”. Besides, the Kd with GFP-His6 (eGFP) [7] and in the experiment with GFP-His6 (eGFP) [3] was 9.5 nM each time.

B17: LaG-14 (VHH)
VHH: QVQLVESGGGLVQAGGSLRLSCAASGRTYSISAMGWFRQAPGKEREFVAGISRSGGTTYYADPVKGRFTISRDNAKNTVYLQMNSLKPEDTAVYYCAARARGWTTFPAREIEYDYWGQGTQVTV
For the molecule B17, the binding result with DsRed [5] is on record as “no binding”. Also, the equilibrium dissociation constant (Kd) in the experiment with GFP-His6 (eGFP) [6] and with GFP-His6 (eGFP) [3] was 1.9 nM each time.

B18: LaG-42 (VHH)
VHH: DVQLVESGGGLVQAGDSLRLSCAASGPTGAMAWFHQGLGKEREFVGGISPSGDNIYYADSVKGRFTIDRDNAKNTVSLQMNSLKPEDMGVYYCAARRRVTLFTSRTDYEFWGRGTQVTVS
Turning to B18, in the experiment with GFP-His6 (eGFP) [3], the affinity, expressed as Kd, was 600 nM.

B19: LaG-3 (VHH)
VHH: QVQLVESGGGLVQAGGSLRVSCAASGRTYSDYAMGWFRQAPGKERDFVAGISGSGGDTYYADSVKGRFTISRDNAKNTMYLQMNSLKPEDTAVYFCAARTGTVLFTSRVDYRYWGQGTQVTV
With B19, in the experiment with DsRed [5], the binding result is “no binding”. Further, the Kd in the experiment with GFP-His6 (eGFP) [6] and with GFP-His6 (eGFP) [3] was 25 nM in each case.

B20: LaG16-LaG2 (3xFLAG) (other)
single-chain fusion of two VHH (part 1 of 2): MAQVQLVESGGRLVQAGDSLRLSCAASGRTFSTSAMAWFRQAPGREREFVAAITWTVGNTILGDSVKGRFTISRDRAKNTVDLQMDNLEPEDTAVYYCSARSRGYVLSVLRSVDSYDYWGQGTQVTVS
single-chain fusion of two VHH (part 2 of 2): MAQVQLVESGGGLVQAGGSLRLSCAASGRTFSNYAMGWFRQAPGKEREFVAAISWTGVSTYYADSVKGRFTISRDNDKNTVYVQMNSLIPEDTAIYYCAAVRARSFSDTYSRVNEYDYWGQGTQVTV
notes: Member of the group m24; also called LaG16-LaG2 3xFLAG Dimer
Take B20: the Kd with GFP-His6 (eGFP) [3] is 0.268 nM; with GFP-His6 (eGFP) [4], 0.27 nM.

B21: LaG-21 (VHH)
VHH: QVQLVESGGGLVQAGGSLRLSCAASGPTGAMAWFRQAPGMEREFVGGISGSETDTYYADFVKGRLTVDRDNVKNTVDLQMNSLKPEDTAVYYCAARRRVTLFTSRADYDFWGQGTQVTVS
Take B21: the binding result in the experiment with DsRed [5] was “no binding”. In the experiment with GFP-His6 (eGFP) [3], the Kd turned out to be 7 nM.

As usually defined, the Kd is the equilibrium constant for the complex coming apart. Read a high Kd as weaker binding.

For the origin of these results see US20170212130A1 (ROCKEFELLER UNIVERSITY, published 2017).
